# Measurements: patent publication US20180155451A1 (published 2018)
# T1: FcγRIIa H type extracellular domain with C-terminal His tag (human, UniProt P12318 34-217)
# T1 construct: extracellular domain; also called FcgRIIa H; FcgRIIaH; not shown: His tag at the C terminus
# T1 sequence (looked up): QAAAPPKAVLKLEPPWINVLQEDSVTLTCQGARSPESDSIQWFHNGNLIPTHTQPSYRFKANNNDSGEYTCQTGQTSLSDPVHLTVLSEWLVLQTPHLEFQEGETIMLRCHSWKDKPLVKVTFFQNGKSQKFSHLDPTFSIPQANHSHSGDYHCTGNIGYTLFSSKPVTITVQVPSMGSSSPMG
# T2: FcγRIIb extracellular domain with C-terminal His tag (human, UniProt P31994 43-217)
# T2 construct: extracellular domain; also called FcgRIIb; 2b; not shown: His tag at the C terminus
# T2 sequence (looked up): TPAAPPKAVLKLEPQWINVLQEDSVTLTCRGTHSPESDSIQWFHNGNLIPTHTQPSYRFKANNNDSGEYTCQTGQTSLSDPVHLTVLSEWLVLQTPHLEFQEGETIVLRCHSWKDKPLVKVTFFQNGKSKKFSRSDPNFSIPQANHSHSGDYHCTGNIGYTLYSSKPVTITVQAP
# T3: FcγRIIa R type extracellular domain with C-terminal His tag (human, UniProt P12318 34-217)
# T3 construct: extracellular domain; also called FcgRIIa R; FcgRIIaR; not shown: His tag at the C terminus
# T3 sequence (looked up): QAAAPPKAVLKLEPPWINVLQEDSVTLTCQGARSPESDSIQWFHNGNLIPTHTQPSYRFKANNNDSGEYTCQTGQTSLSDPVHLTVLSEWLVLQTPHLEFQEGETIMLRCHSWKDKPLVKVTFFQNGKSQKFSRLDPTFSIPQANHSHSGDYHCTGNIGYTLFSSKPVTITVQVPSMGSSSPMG
# Legend:
# Assay in all cases: SPR (Biacore), antibody captured on chip, soluble FcgR as analyte; experiment 2
# [1] = target: T1, FcγRIIa H type extracellular domain …
# Experimental: (§1) Antibodies of interest were analyzed for the interaction to FcgR according to the method described in Reference Example 8.
# (§2) Analysis of interaction between obj ective antibody and the FcγR was carried out using Biacore T100 (GE Healthcare), Biacore T200, Biacore A100, and Biacore 4000. HBS-EP+ (GE Healthcare) was used as the running buffer, and the measurement temperature was set to 25° C. Chips produced by immobilizing the antigen peptide by the amine coupling method to a Series S sensor Chip CM5 (GE Healthcare), chips produced by allowing preliminarily biotinylated antigen peptides to interact with and immobilize onto a Series S Sensor Chip SA (certified) (GE Healthcare), chips produced by immobilizing Protein L (ACTIGEN, BioVision) to Series S Sencor Chip CM5 (GE Healthcare), or chips produced by immobilizing Protein A/G (Thermo Scientific) to Series S Sencor Chip CM5 (GE Healthcare) were used. Antibodies of interest were captured onto these chips, and allowed to interact to each FcγR diluted with running buffer. To regenerate and repeatedly use the chip, the antibodies captured onto the chip were washed off by reacting 10 mM glycine-HCl, pH 1.5.
# [2] = target: T2, FcγRIIb extracellular domain with …
# Experimental: as §1, §2
# [3] = target: T3, FcγRIIa R type extracellular domain …
# Experimental: as §1, §2
# [4] = target: T4, FcγRIIIa F type extracellular domain with C-terminal His tag (human, UniProt P08637 17-208)
# T4 construct: extracellular domain; also called FcgRIIIa F; FcgRIIIaF; not shown: His tag at the C terminus
# Experimental: as §1, §2
# [5] = target: T5, FcγRIIIa V type extracellular domain with C-terminal His tag (human, UniProt P08637 17-208)
# T5 construct: extracellular domain; also called FcgRIIIa V; FcgRIIIaV; not shown: His tag at the C terminus
# Experimental: as §1, §2
# [6] = target: T6, FcγRIa extracellular domain with C-terminal His tag (human, UniProt P12314 16-292)
# T6 construct: extracellular domain; also called FcgRI; FcgRIa; not shown: His tag at the C terminus
# Experimental: as §1, §2
# T4 sequence (P08637 17-208): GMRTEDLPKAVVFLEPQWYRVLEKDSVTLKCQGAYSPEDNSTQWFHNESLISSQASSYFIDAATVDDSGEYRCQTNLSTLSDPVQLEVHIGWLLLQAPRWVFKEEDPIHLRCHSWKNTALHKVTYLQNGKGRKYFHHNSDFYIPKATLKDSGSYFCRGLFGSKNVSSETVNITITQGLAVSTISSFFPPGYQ
# T6 sequence (P12314 16-292): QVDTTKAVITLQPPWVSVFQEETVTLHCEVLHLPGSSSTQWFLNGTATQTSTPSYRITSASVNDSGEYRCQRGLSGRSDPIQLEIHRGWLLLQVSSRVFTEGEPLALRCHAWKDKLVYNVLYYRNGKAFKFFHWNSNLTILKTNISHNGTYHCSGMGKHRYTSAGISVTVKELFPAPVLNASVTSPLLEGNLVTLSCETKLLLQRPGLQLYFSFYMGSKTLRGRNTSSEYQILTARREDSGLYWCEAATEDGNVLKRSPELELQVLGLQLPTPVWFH
# T5 sequence (P08637 17-208 F176V): as the sequence (P08637 17-208) above, with F160V counted along it
binder,measurement,setting,value
"H240-FA009/H240-FB016/L73-k0 (antibody, human IgG1, kappa, Heterodimerized anti-EREG IgG1 antibody; A chain altered from H240-AK072, B chain altered from H240-BH076) heavy 1: QDQLVQSGAEVKKPGASVKVSCKASGFNIKDTYIQWVRQAPGQGLEWMGRIDPLRKQTKYREKFEGRVTITADTSTNTAYMELSSLRSEDTAVYYCVRSGREFDYWGQGTLVTVSSASTKGPSVFPLAPSSKSTSGGTAALGCLVKDYFPEPVTVSWNSGALTSGVHTFPAVLQSSGLYSLSSVVTVPSSSLGTKTYICNVNHKPSNTKVDKKVEPKSCDKTHTCPPCPAPEYYWGPSVFLFPPKPKDTLMISRTPEVTCVVVDVSDEEPEVKFNWYVDGVEVHNAKTKPREEQYNATYRVVSVLTVLHQDWLNGKEYKCKVSNKALPAPIEKTISKAKGQPREPQVYTLPPSRKEMTKNQVSLTCLVKGFYPSDIAVEWESNGQPENNYKTTPPVLDSDGSFFLYSKLTVDKSRWQQGNVFSCSVMHEALHNRYTQKSLSLSP heavy 2: QDQLVQSGAEVKKPGASVKVSCKASGFNIKDTYIQWVRQAPGQGLEWMGRIDPLRKQTKYREKFEGRVTITADTSTNTAYMELSSLRSEDTAVYYCVRSGREFDYWGQGTLVTVSSASTKGPSVFPLAPSSKSTSGGTAALGCLVKDYFPEPVTVSWNSGALTSGVHTFPAVLQSSGLYSLSSVVTVPSSSLGTQTYICNVDHKPSNTKVDKKVEPKSCDKTHTCPPCPAPELLGGPSVFLFPPKPKDTLMISRTPEVTCVVVDVSHEEPEVQFNWYVDGVEVHNAKTKPREEQYNSTYRVVSVLTVLHQDWLNGKEYKCKVSNDALPMPIEETISKAKGQPREPQVYTLPPSREEMTKNQVSLTCLVKGFYPSDIAVEWESNGQPENNYKTTPPVLDSDGSFFLYSKLTVDKSRWQQGNVFSCSVMHEALHNHYTQESLSLSP light: DIQMTQSPSSLSASVGDRVTITCRASQDIHKYIAWYQQKPGQAPRLLIQYTSTLQPGVPSRFSGSGSGTDYTFTISSLQPEDIATYYCLQYEQLRTFGGGTKVEIKRTVAAPSVFIFPPSDEQLKSGTASVVCLLNNFYPREAKVQWKVDNALQSGNSQESVTEQDSKDSTYSLSSTLTLSKADYEKHKVYACEVTHQGLSSPVTKSFNRGEC",Kd,[1],70 nM
same,Kd,[2],1400 nM
same,Kd,[3],250 nM
same,Kd,[4],4.4 nM
same,Kd,[5],1 nM
same,Kd,[6],0.13 nM
"H240-FA009/H240-FB017/L73-k0 (antibody, human IgG1, kappa, Heterodimerized anti-EREG IgG1 antibody; A chain altered from H240-AK072, B chain altered from H240-BH076) heavy 1: QDQLVQSGAEVKKPGASVKVSCKASGFNIKDTYIQWVRQAPGQGLEWMGRIDPLRKQTKYREKFEGRVTITADTSTNTAYMELSSLRSEDTAVYYCVRSGREFDYWGQGTLVTVSSASTKGPSVFPLAPSSKSTSGGTAALGCLVKDYFPEPVTVSWNSGALTSGVHTFPAVLQSSGLYSLSSVVTVPSSSLGTKTYICNVNHKPSNTKVDKKVEPKSCDKTHTCPPCPAPEYYWGPSVFLFPPKPKDTLMISRTPEVTCVVVDVSDEEPEVKFNWYVDGVEVHNAKTKPREEQYNATYRVVSVLTVLHQDWLNGKEYKCKVSNKALPAPIEKTISKAKGQPREPQVYTLPPSRKEMTKNQVSLTCLVKGFYPSDIAVEWESNGQPENNYKTTPPVLDSDGSFFLYSKLTVDKSRWQQGNVFSCSVMHEALHNRYTQKSLSLSP heavy 2: QDQLVQSGAEVKKPGASVKVSCKASGFNIKDTYIQWVRQAPGQGLEWMGRIDPLRKQTKYREKFEGRVTITADTSTNTAYMELSSLRSEDTAVYYCVRSGREFDYWGQGTLVTVSSASTKGPSVFPLAPSSKSTSEGTAALGCLVKDYFPEPVTVSWNSGALTSGVHTFPAVLQSSGLYSLSSVVTVPSSSLGTQTYICNVDHKPSNTKVDKKVEPKSCDKTHTCPPCPAPELLGGPSVFLFPPKPKDTLMISRTPEVTCVVVDVSHEEPEVQFNWYVDGVEVHNAKTKPREEQYNSTYRVVSVLTVLHQDWLNGKEYKCKVSNDALPMPIEETISKAKGQPREPQVYTLPPSREEMTKNQVSLTCLVKGFYPSDIAVEWESNGQPENNYKTTPPVLDSDGSFFLYSKLTVDKSRWQQGNVFSCSVMHEALHNHYTQESLSLSP light: DIQMTQSPSSLSASVGDRVTITCRASQDIHKYIAWYQQKPGQAPRLLIQYTSTLQPGVPSRFSGSGSGTDYTFTISSLQPEDIATYYCLQYEQLRTFGGGTKVEIKRTVAAPSVFIFPPSDEQLKSGTASVVCLLNNFYPREAKVQWKVDNALQSGNSQESVTEQDSKDSTYSLSSTLTLSKADYEKHKVYACEVTHQGLSSPVTKSFNRGEC",Kd,[1],61 nM
same,Kd,[2],1400 nM
same,Kd,[3],230 nM
same,Kd,[4],3 nM
same,Kd,[5],0.84 nM
same,Kd,[6],0.11 nM
"H240-FA009/H240-FB020/L73-k0 (antibody, human IgG1, kappa, Heterodimerized anti-EREG IgG1 antibody; A chain altered from H240-AK072, B chain altered from H240-BH076) heavy 1: QDQLVQSGAEVKKPGASVKVSCKASGFNIKDTYIQWVRQAPGQGLEWMGRIDPLRKQTKYREKFEGRVTITADTSTNTAYMELSSLRSEDTAVYYCVRSGREFDYWGQGTLVTVSSASTKGPSVFPLAPSSKSTSGGTAALGCLVKDYFPEPVTVSWNSGALTSGVHTFPAVLQSSGLYSLSSVVTVPSSSLGTKTYICNVNHKPSNTKVDKKVEPKSCDKTHTCPPCPAPEYYWGPSVFLFPPKPKDTLMISRTPEVTCVVVDVSDEEPEVKFNWYVDGVEVHNAKTKPREEQYNATYRVVSVLTVLHQDWLNGKEYKCKVSNKALPAPIEKTISKAKGQPREPQVYTLPPSRKEMTKNQVSLTCLVKGFYPSDIAVEWESNGQPENNYKTTPPVLDSDGSFFLYSKLTVDKSRWQQGNVFSCSVMHEALHNRYTQKSLSLSP heavy 2: QDQLVQSGAEVKKPGASVKVSCKASGFNIKDTYIQWVRQAPGQGLEWMGRIDPLRKQTKYREKFEGRVTITADTSTNTAYMELSSLRSEDTAVYYCVRSGREFDYWGQGTLVTVSSASTKGPSVFPLAPSSKSTSGGTAALGCLVEDYFPEPVTVSWNSGALTSGVHTFPAVLQSSGLYSLSSVVTVPSSSLGTQTYICNVNHKPSNTKVDKKVEPKSCDKTHTCPPCPAPELLGGPSVFLFPPKPKDTLMISRTPEVTCVVVDVSHEEPEVQFNWYVDGVEVHNAKTKPREEQYNSTYRVVSVLTVLHQDWLNGKEYKCKVSNDALPMPIEETISKAKGQPREPQVYTLPPSREEMTKNQVSLTCLVKGFYPSDIAVEWESNGQPENNYKTTPPVLDSDGSFFLYSKLTVDKSRWQQGNVFSCSVMHEALHNHYTQESLSLSP light: DIQMTQSPSSLSASVGDRVTITCRASQDIHKYIAWYQQKPGQAPRLLIQYTSTLQPGVPSRFSGSGSGTDYTFTISSLQPEDIATYYCLQYEQLRTFGGGTKVEIKRTVAAPSVFIFPPSDEQLKSGTASVVCLLNNFYPREAKVQWKVDNALQSGNSQESVTEQDSKDSTYSLSSTLTLSKADYEKHKVYACEVTHQGLSSPVTKSFNRGEC",Kd,[1],64 nM
same,Kd,[2],1400 nM
same,Kd,[3],250 nM
same,Kd,[4],3.9 nM
same,Kd,[5],1.1 nM
same,Kd,[6],0.12 nM
